Series [1] concerns the target T1, CjNapA (WT NapA) (Campylobacter jejuni, UniProt Q9PPD9).
T1 construct: recombinant catalytic subunit NapA without NapB; native N-terminal TAT signal peptide replaced by that of E. coli; 889 residues modelled by cryo-EM
The experiment in a line: steady-state nitrate reductase assay, reduced methyl viologen oxidation, double-reciprocal plot. It is filed as biochemical.

The subject of a further series is [O-][Cl+3]([O-])([O-])O. The experiment in a line: purified protein. It is filed as biochemical, Campylobacter jejuni. The note with it: reduced methyl viologen, 50 mM HEPES pH 7, room temperature, argon glove box, 67 nM enzyme, corrected for background oxidation.
The test system of a further series is [O-][Cl+2]([O-])O. The series can be described thus: purified protein. Type of series: biochemical, Campylobacter jejuni. The note with it: reduced methyl viologen, 50 mM HEPES pH 7, room temperature, argon glove box, 67 nM enzyme.
For series [2], the target named is T1, CjNapA (WT NapA). The experiment in a line: cryo-EM structure, […] Å. Type of series: binding. The note with it: coordinated by Cys42, Cys45, Cys49, Cys77.

T1 sequence (Q9PPD9 31-924): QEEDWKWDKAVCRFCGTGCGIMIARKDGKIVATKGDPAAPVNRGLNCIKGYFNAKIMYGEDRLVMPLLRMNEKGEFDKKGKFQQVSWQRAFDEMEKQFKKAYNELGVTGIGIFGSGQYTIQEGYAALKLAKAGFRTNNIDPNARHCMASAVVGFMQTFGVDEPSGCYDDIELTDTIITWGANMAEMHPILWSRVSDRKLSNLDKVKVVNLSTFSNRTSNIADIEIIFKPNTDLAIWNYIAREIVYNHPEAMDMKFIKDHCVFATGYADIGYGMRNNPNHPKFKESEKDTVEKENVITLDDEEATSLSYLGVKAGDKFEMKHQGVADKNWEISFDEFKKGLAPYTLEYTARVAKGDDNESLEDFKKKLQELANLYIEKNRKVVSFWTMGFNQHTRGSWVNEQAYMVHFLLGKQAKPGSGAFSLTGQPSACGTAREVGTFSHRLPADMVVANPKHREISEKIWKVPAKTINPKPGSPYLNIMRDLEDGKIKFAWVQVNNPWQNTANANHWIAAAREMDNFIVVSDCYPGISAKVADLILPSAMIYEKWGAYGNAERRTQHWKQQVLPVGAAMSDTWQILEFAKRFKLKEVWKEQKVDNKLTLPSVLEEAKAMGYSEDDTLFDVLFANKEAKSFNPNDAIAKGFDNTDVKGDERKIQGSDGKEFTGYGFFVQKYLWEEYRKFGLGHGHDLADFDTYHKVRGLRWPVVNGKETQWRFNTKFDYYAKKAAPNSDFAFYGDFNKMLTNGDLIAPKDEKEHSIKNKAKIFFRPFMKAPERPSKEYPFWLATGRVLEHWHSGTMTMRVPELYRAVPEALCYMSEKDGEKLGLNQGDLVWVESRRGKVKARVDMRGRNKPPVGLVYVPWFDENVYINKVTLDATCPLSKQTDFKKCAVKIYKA

Turning to `[O-][Cl+3]([O-])([O-])O` [perchlorate], on CjNapA (WT NapA) [1], the Ki (as a rule, the dissociation constant of the complex between target and ligand, obtained from inhibition or displacement) stood at 4.7 ± 0.3 mM.

As for “CjNapA (WT NapA) (Campylobacter jejuni subsp. jejuni NCTC 11168 = ATCC 700819)”, in series [O-][Cl+3]([O-])([O-])O, the Km (as a rule, the substrate concentration at which the rate is half of its maximum) amounted to 22.907 ± 3.132 mM; the turnover number (kcat) – broadly, the maximal rate divided by the concentration of active sites – stood at 2.52 ± 0.07 s⁻¹; the kcat/Km (commonly the turnover number divided by the Michaelis constant) was found to be 100 M⁻¹ s⁻¹. For the same compound, in series [O-][Cl+2]([O-])O, the Michaelis-Menten constant (Km) turned out to be 0.968 ± 0.093 mM, the kcat was found to be 2.13 ± 0.04 s⁻¹ and the kcat/Km worked out at 2200 M⁻¹ s⁻¹.

Take `[S]12[Fe]3[S]4[Fe]1[S]1[Fe]2[S]3[Fe]41` [[4Fe4S] cluster]: on CjNapA (WT NapA) [2], the “cryo-EM structure, 3.04 Å” value was “NapA has a [4Fe4S] cluster, which is located closer to the surface of the protein”.
